Target: LRRK2 wild-type (UniProt Q5S007 1-2527)
Assay: EMSA

Chain of LRRK2 wild-type (Q5S007 whole entry): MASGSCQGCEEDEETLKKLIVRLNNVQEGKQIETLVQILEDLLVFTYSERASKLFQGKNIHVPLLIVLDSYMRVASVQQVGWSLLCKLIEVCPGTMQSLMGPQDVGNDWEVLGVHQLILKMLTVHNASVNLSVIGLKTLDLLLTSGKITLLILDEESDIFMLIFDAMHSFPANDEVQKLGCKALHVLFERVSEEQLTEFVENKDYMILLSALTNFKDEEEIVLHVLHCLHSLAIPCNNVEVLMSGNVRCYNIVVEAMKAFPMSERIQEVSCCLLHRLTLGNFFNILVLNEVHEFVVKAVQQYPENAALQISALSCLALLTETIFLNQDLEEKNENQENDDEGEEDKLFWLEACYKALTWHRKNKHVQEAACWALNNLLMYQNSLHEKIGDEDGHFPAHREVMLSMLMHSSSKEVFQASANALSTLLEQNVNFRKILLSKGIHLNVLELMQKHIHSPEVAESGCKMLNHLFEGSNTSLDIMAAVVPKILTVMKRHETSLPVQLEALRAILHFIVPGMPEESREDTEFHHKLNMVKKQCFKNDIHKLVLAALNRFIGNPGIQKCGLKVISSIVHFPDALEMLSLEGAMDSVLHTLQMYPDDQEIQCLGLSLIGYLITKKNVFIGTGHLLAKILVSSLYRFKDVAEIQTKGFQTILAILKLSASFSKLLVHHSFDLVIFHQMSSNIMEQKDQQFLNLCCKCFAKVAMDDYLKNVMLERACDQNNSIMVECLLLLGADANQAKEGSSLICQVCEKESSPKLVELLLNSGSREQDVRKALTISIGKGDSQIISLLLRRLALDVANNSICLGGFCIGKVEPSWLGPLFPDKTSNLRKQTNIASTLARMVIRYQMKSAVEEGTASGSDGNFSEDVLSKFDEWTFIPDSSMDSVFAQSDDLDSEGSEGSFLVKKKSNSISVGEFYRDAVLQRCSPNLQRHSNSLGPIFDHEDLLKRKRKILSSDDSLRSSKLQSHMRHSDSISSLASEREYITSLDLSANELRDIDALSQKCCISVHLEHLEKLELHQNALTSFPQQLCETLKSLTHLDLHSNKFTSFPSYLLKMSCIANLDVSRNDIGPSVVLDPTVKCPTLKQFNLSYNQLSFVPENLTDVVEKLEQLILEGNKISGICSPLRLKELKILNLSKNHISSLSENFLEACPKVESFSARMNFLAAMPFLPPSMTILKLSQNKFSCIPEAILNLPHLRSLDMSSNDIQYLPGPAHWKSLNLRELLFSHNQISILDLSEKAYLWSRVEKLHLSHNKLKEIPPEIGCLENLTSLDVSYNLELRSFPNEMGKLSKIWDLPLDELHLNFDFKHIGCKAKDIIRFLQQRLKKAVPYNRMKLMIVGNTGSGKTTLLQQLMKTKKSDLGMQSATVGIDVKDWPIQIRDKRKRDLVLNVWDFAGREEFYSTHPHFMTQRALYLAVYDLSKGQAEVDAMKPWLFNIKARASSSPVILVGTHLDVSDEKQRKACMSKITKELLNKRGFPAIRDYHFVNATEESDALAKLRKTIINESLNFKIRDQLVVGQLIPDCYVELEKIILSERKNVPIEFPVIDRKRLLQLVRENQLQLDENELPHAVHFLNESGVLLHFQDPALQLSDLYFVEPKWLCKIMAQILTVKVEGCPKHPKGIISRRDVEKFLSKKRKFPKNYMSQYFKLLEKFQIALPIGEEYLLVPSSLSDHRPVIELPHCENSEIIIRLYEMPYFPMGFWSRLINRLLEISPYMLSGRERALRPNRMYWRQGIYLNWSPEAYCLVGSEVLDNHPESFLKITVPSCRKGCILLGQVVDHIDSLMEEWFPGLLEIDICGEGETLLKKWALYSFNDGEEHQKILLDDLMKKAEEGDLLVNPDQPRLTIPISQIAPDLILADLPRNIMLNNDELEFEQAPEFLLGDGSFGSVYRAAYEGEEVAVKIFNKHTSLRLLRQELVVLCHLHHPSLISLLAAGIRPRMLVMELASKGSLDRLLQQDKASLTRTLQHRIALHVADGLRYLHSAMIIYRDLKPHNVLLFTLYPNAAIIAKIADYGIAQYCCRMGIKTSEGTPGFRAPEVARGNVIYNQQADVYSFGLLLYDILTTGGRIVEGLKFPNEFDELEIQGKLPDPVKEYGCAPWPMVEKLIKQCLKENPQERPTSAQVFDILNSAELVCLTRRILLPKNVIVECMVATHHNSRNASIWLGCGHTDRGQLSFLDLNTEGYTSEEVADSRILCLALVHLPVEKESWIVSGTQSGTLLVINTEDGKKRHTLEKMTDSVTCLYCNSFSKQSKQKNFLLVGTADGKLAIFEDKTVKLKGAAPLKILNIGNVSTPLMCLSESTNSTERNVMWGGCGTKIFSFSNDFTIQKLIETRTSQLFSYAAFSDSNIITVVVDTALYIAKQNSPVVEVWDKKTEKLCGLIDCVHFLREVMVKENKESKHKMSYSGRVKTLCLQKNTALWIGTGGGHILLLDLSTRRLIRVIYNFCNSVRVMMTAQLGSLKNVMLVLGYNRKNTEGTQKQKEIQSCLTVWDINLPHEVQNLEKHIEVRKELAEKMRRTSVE

## GGAAACAGUCAUUUGCGCACAACUUUAAAAGUCUGCAU (ssRNA) [BDNF 3'UTR control segment without neuronal ELAV sites]
  binding result: no binding

## AGAAAAAAUAUUUAUUGUAUUUUAGUAUAUUUAUAUAA (ssRNA) [BDNF 3'UTR neuronal ELAV binding segment (U-rich)]
  binding result: no binding

— publication doi:10.1101/2022.04.24.489327
